Data published in US20210214417A1 (KAHR MEDICAL, published 2021).

Target: T1, recombinant human His-tagged CD47 protein (ACRO Biosystem, cat # CD7-H5227) (human, UniProt Q08722 19-139)
T1 construct: also called Recombinant human CD47; not shown: His tag
Test: competition ELISA: recombinant human CD47 on the plate, fusion protein added first, then biotinylated SIRPα as the blocked ligand, streptavidin-HRP and TMB, 450 nm; EC50 calculated over 0 to 0.7 ug/ml
Method: SIRPα-4-1BBL fusion protein, or a positive control anti CD47 antibody were added to the plate. Following wash biotinylated recombinant human SIRPα was added followed by streptavidin HRP and TMB substrate. Interaction of SIRPα with CD47 was measured by absorbance at 450 nm.
Methods—ELISA plates were coated overnight with recombinant human CD47. The plates were washed and incubated for 1 hour with different concentrations of the produced SIRPα-4-BBL fusion proteins or a positive control anti CD47 antibody. Following, a biotinylated SIRPα was added; and following 1 hour incubation the plates were washed and blotted with Streptavidin-HRP and TMB substrate according to a standard ELISA protocol (FIG. 13A). Plates were analyzed using a Plate reader (Thermo Scientific, Multiscan FC) at 450 nm, with reference at 620 nm.

T1 sequence (Q08722 19-139 limits assumed): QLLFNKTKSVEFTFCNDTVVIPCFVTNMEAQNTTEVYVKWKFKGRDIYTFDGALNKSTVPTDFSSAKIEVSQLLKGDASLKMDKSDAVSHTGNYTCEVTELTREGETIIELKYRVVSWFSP

B1: C-terminal his-tagged DSP107_V3.1 (SEQ ID NO: 17) (other)
chain: EEELQVIQPDKSVLVAAGETATLRCTATSLIPVGPIQWFRGAGPGRELIYNQKEGHFPRVTTVSDLTKRNNMDFSIRIGNITPADAGTYYCVKFRKGSPDDVEFKSGAGTELSVRAGSGARASPGSAASPRLREGPELSPDDPAGLLDLRQGMFAQLVAQNVLLIDGPLSWYSDPGLAGVSLTGGLSYKEDTKELVVAKAGVYYVFFQLELRRVVAGEGSGSVSLALHLQPLRSAAGAAALALTVDLPPASSEARNSAFGFQGRLLHLSAGQRLGVHLHTEARARHAWQLTQGATVLGLFRVTPEIPAGLPSPRSEHHHHHH
notes: also called (CH)-V3.1; DSP107_var3.1 with C-terminal His tag
- EC50: 0.103 µg/mL
